Patent US20200062863A1 (CSL BEHRING, published 2020)
Where a chain is given by its changes, count along the chain named.

Assays:
Assay in all cases: Western blot of culture supernatant (non-reducing SDS-PAGE) probed with 3F7 mAb, anti-human IgG-FITC
W420R = molecular target: T1, W420R
T1 construct: also called Mu-FXII W420R mutant with C-terminal 8xHis-tag; mutant d)
T1 single chain: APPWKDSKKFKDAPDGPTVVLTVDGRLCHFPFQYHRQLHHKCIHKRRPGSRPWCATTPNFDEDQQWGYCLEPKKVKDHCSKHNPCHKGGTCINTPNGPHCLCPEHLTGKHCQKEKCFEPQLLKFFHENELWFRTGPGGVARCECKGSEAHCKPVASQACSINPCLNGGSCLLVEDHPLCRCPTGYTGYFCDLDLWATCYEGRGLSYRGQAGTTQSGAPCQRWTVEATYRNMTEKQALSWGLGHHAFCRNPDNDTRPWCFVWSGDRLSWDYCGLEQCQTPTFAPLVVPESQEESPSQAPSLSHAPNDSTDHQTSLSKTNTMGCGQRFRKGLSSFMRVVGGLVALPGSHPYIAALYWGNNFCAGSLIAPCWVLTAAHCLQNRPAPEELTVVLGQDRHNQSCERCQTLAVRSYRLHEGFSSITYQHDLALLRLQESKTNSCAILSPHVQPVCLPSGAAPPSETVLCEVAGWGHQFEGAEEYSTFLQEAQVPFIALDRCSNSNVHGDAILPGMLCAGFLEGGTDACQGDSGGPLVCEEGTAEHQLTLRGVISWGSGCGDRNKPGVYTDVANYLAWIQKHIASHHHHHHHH
Protocol: (§1) Proteins were then transferred electrophoretically onto nitrocellulose filters and blocked for 1 hour in 5% Milk powder in Tris-buffered saline with 0.05% Tween-20 (TTBS). Filters were then incubated for 1 hour with either 3F7 mAb or an anti-His mAb 3H3 (both at […] in TTBS with 5% Milk powder), washed thoroughly with TTBS, then incubated for a further hour with anti-human IgG-FITC or anti-mouse IgG-FITC, respectively (Millipore, USA; both at 0.25 mg/ml in TTBS with 5% Milk powder). Following further washing of membranes in TTBS, Ab-FITC bound proteins were visualized using a Typhoon variable mode analyzer (GE Healthcare, USA).

N376D = molecular target: T2, N376D
T2 construct: also called Mu-FXII N376D mutant with C-terminal 8xHis-tag; mutant a)
T2 single chain: T1 single chain with N357D, R401W
Protocol: as §1

A589D = molecular target: T3, A589D
T3 construct: also called Mu-FXII A589D mutant with C-terminal 8xHis-tag; mutant n)
T3 single chain: T1 single chain with R401W, A570D
Protocol: as §1

A385D = molecular target: T4, A385D
T4 construct: also called Mu-FXII A385D mutant with C-terminal 8xHis-tag; mutant b)
T4 single chain: T1 single chain with A366D, R401W
Protocol: as §1

binding result (W420R): binds
binding result (N376D): binds
binding result (A589D): binds
binding result (A385D): binds
B1: monoclonal antibody 3F7 (fully human IgG4/lambda) (antibody, V domains shown)
VH: EVQLLESGGGLVQPGGSLRLSCAASGFTFSKYIMQWVRQAPGKGLEWVSGIRPSGGTTVYADSVKGRFTISRDNSKNTLYLQMNSLRAEDTAVYYCARALPRSGYLISPHYYYYALDVWGQGTTVTVSS
VL: QSELTQPPSASGTPGQRVTISCSGSSSNIGRNYVYWYQQVPGTAPKLLIYSNNQRPSGVPDRFSGSKSGTSASLVISGLRSEDEADYYCAAWDASLRGVFGGGTKLTVLG
notes: also called 3F7 mAb; MAb 3F7
